The data set concerns the target NS1A(1-73), NS1 protein N-terminal dsRNA-binding domain (Influenza A virus (A/Udorn/72)?, UniProt B4URE2 SEQ:1-73).

Results on one molecule are retold here after US20100081126, “PROCESS FOR DESIGNING INHIBITORS OF INFLUENZA VIRUS STRUCTURAL PROTEIN-1” (RUTGERS, THE STATE UNIVERSITY OF NEW JERSEY, published 2010).

Chain of NS1A(1-73), NS1 protein N-terminal dsRNA-binding domain (B4URE2 1-73): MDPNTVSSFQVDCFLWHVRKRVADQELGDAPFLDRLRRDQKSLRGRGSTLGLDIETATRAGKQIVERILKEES

B1: 16-bp dsRNA (RR) (dsRNA)
RNA 1: CCAUCCUCUACAGGCG
RNA 2: CGCCUGUAGAGGAUGG
For the molecule B1, the dissociation constant (Kd) – broadly, a measure of binding affinity in units of concentration – worked out at 0.748 µM.
